± gives the uncertainty stated by the source.
B1: Receptor-interacting serine/threonine-protein kinase 2, residues 438 to 518; numbered along this chain, O43353 (parent)
chain: QWIQSKREDIVNQMTEACLNQSLDALLSRDLIMKEDYELVSTKPTRTSKVRQLLDTTDIQGEEFAKVIVQKLKDNKQMGLQ

Variants of: B1
Experiment: abundance fitness (aPCA) (normalised: wild type 0, dead -1); higher = more abundant; growth selection in yeast, the domain comes from the species named
Details: Homo sapiens

| Variant | abundance fitness |
| --- | --- |
| QWIQSKREDIVNQMTEACLNQSLDALLSRDLIMKEDYEFVSTKPTRTSKVRQLLDTTDIQGEEFAKVIVQKLKDNKQMGLQ [L39F] | -0.436 ± 0.09 |
| QWIQSKREDIVNQMTEACLNQSLDALLSRDLIMKEDYEVVSTKPTRTSKVRQLLDTTDIQGEEFAKVIVQKLKDNKQMGLQ [L39V] | -0.199 ± 0.079 |
| QWIQSKREDIVNQMTEACLNQSLDALLSRDLIMKEDYESVSTKPTRTSKVRQLLDTTDIQGEEFAKVIVQKLKDNKQMGLQ [L39S] | -0.138 ± 0.071 |
| QWIQSKREDIVNQMTEACLNQSLDALLSRDLIMKEDYEPVSTKPTRTSKVRQLLDTTDIQGEEFAKVIVQKLKDNKQMGLQ [L39P] | -0.635 ± 0.13 |
| QWIQSKREDIVNQMTEACLNQSLDALLSRDLIMKEDYEKVSTKPTRTSKVRQLLDTTDIQGEEFAKVIVQKLKDNKQMGLQ [L39K] | 0.119 ± 0.19 |
| QWIQSKREDIVNQMTEACLNQSLDALLSRDLIMKEDYENVSTKPTRTSKVRQLLDTTDIQGEEFAKVIVQKLKDNKQMGLQ [L39N] | -0.034 ± 0.17 |
| QWIQSKREDIVNQMTEACLNQSLDALLSRDLIMKEDYEDVSTKPTRTSKVRQLLDTTDIQGEEFAKVIVQKLKDNKQMGLQ [L39D] | -0.194 ± 0.11 |
| QWIQSKREDIVNQMTEACLNQSLDALLSRDLIMKEDYERVSTKPTRTSKVRQLLDTTDIQGEEFAKVIVQKLKDNKQMGLQ [L39R] | 0.015 ± 0.047 |
| QWIQSKREDIVNQMTEACLNQSLDALLSRDLIMKEDYEIVSTKPTRTSKVRQLLDTTDIQGEEFAKVIVQKLKDNKQMGLQ [L39I] | -0.352 ± 0.11 |
| QWIQSKREDIVNQMTEACLNQSLDALLSRDLIMKEDYEGVSTKPTRTSKVRQLLDTTDIQGEEFAKVIVQKLKDNKQMGLQ [L39G] | -0.34 ± 0.056 |
| QWIQSKREDIVNQMTEACLNQSLDALLSRDLIMKEDYEYVSTKPTRTSKVRQLLDTTDIQGEEFAKVIVQKLKDNKQMGLQ [L39Y] | -0.407 ± 0.23 |
| QWIQSKREDIVNQMTEACLNQSLDALLSRDLIMKEDYECVSTKPTRTSKVRQLLDTTDIQGEEFAKVIVQKLKDNKQMGLQ [L39C] | -0.379 ± 0.1 |
| QWIQSKREDIVNQMTEACLNQSLDALLSRDLIMKEDYEAVSTKPTRTSKVRQLLDTTDIQGEEFAKVIVQKLKDNKQMGLQ [L39A] | 0.092 ± 0.08 |
| QWIQSKREDIVNQMTEACLNQSLDALLSRDLIMKEDYEWVSTKPTRTSKVRQLLDTTDIQGEEFAKVIVQKLKDNKQMGLQ [L39W] | -0.815 ± 0.13 |
| QWIQSKREDIVNQMTEACLNQSLDALLSRDLIMKEDYEHVSTKPTRTSKVRQLLDTTDIQGEEFAKVIVQKLKDNKQMGLQ [L39H] | -0.107 ± 0.081 |
| QWIQSKREDIVNQMTEACLNQSLDALLSRDLIMKEDYEEVSTKPTRTSKVRQLLDTTDIQGEEFAKVIVQKLKDNKQMGLQ [L39E] | -0.003 ± 0.14 |
| QWIQSKREDIVNQMTEACLNQSLDALLSRDLIMKEDYEMVSTKPTRTSKVRQLLDTTDIQGEEFAKVIVQKLKDNKQMGLQ [L39M] | -0.218 ± 0.23 |

| Variant | abundance fitness |
| --- | --- |
| QWIQSKREDIVNQMTEACLNQSLDALLSRDLIMKEDYELVGTKPTRTSKVRQLLDTTDIQGEEFAKVIVQKLKDNKQMGLQ [S41G] | -0.295 ± 0.063 |
| QWIQSKREDIVNQMTEACLNQSLDALLSRDLIMKEDYELVPTKPTRTSKVRQLLDTTDIQGEEFAKVIVQKLKDNKQMGLQ [S41P] | -0.599 ± 0.085 |
| QWIQSKREDIVNQMTEACLNQSLDALLSRDLIMKEDYELVITKPTRTSKVRQLLDTTDIQGEEFAKVIVQKLKDNKQMGLQ [S41I] | 0.09 ± 0.11 |
| QWIQSKREDIVNQMTEACLNQSLDALLSRDLIMKEDYELVETKPTRTSKVRQLLDTTDIQGEEFAKVIVQKLKDNKQMGLQ [S41E] | -0.259 ± 0.11 |
| QWIQSKREDIVNQMTEACLNQSLDALLSRDLIMKEDYELVNTKPTRTSKVRQLLDTTDIQGEEFAKVIVQKLKDNKQMGLQ [S41N] | 0.094 ± 0.099 |
| QWIQSKREDIVNQMTEACLNQSLDALLSRDLIMKEDYELVMTKPTRTSKVRQLLDTTDIQGEEFAKVIVQKLKDNKQMGLQ [S41M] | 0.166 ± 0.047 |
| QWIQSKREDIVNQMTEACLNQSLDALLSRDLIMKEDYELVCTKPTRTSKVRQLLDTTDIQGEEFAKVIVQKLKDNKQMGLQ [S41C] | -0.042 ± 0.07 |
| QWIQSKREDIVNQMTEACLNQSLDALLSRDLIMKEDYELVDTKPTRTSKVRQLLDTTDIQGEEFAKVIVQKLKDNKQMGLQ [S41D] | -0.448 ± 0.098 |
| QWIQSKREDIVNQMTEACLNQSLDALLSRDLIMKEDYELVATKPTRTSKVRQLLDTTDIQGEEFAKVIVQKLKDNKQMGLQ [S41A] | -0.007 ± 0.064 |
| QWIQSKREDIVNQMTEACLNQSLDALLSRDLIMKEDYELVKTKPTRTSKVRQLLDTTDIQGEEFAKVIVQKLKDNKQMGLQ [S41K] | 0.158 ± 0.12 |
| QWIQSKREDIVNQMTEACLNQSLDALLSRDLIMKEDYELVLTKPTRTSKVRQLLDTTDIQGEEFAKVIVQKLKDNKQMGLQ [S41L] | 0.069 ± 0.054 |
| QWIQSKREDIVNQMTEACLNQSLDALLSRDLIMKEDVELVSTKPTRTSKVRQLLDTTDIQGEEFAKVIVQKLKDNKQMGLQ [Y37V] | -0.413 ± 0.091 |
| QWIQSKREDIVNQMTEACLNQSLDALLSRDLIMKEDSELVSTKPTRTSKVRQLLDTTDIQGEEFAKVIVQKLKDNKQMGLQ [Y37S] | -0.518 ± 0.045 |
| QWIQSKREDIVNQMTEACLNQSLDALLSRDLIMKEDPELVSTKPTRTSKVRQLLDTTDIQGEEFAKVIVQKLKDNKQMGLQ [Y37P] | -0.614 ± 0.084 |
| QWIQSKREDIVNQMTEACLNQSLDALLSRDLIMKEDNELVSTKPTRTSKVRQLLDTTDIQGEEFAKVIVQKLKDNKQMGLQ [Y37N] | -0.401 ± 0.14 |
| QWIQSKREDIVNQMTEACLNQSLDALLSRDLIMKEDQELVSTKPTRTSKVRQLLDTTDIQGEEFAKVIVQKLKDNKQMGLQ [Y37Q] | -0.547 ± 0.11 |
| QWIQSKREDIVNQMTEACLNQSLDALLSRDLIMKEDWELVSTKPTRTSKVRQLLDTTDIQGEEFAKVIVQKLKDNKQMGLQ [Y37W] | -0.232 ± 0.066 |
